Measured values taken from the nanobody polyreactivity screen of Harvey et al. (2022).

Assay: yeast display, Sf9 membrane polyspecificity reagent, FACS + sequencing; frameworks hold sequencing errors
Summary of the method: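 Galactose induction of a Saccharomyces cerevisiae BJ5465 synthetic nanobody display library ran 36–48 hours. The cells were then stained for 1 hour at 4 °C with 10% biotinylated, detergent-solubilized Sf9 membrane reagent, pulled down on streptavidin microbeads and FACS-sorted into low and high (top ~1%) gates on expression and reagent-binding fluorescence. Labels for polyreactivity follow the gate of origin.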

| Sequence | polyreactivity (PSR sort gate) |
| --- | --- |
| QVQLVESGGGLVQAGGTLRLSCAASGYIFAWYAMGWYRQAPGKERELVATITWRGGSTYYADSVKGRFTISRDNAKNTVYLQMNSLKPEDTAVYYCNKDVTPLHYDSWGQGTQVTVSS | high polyreactivity |
| QVQLVESGGGLVQAGGSLRLSCAASGFSFDSNAMGWYRQAPGKERELVAVITSSGGRTYYADSVKGRFTISRDNAKNTVYLQMNSLKPEDTAVYYCAAAKKFFWYEYDYWGQGTQVSVSS | high polyreactivity |
| QVQLVESGGGLVQAGGSLRLSCAASGSTFGHNVMGWYRQSPGKERELVAAISTSGGRTYYADSVKGRFTISRDNAKNTVYLQMNSLKPEDTAVYYCAARVYSTSVVAYYYWGQGTQVTVSS | high polyreactivity |
| QVQLVESGGGLVQAGGSLRLSCAASGSIFFYNTMGWYRQAPGKERELVAAISASGGRTYYADSVKGRFTISRDNAKNTVYLQMNSLKPEDTAVYYCAVRVPYRGYTRYDYWGQGTQVTVSS | high polyreactivity |
| QVQLVESGGGIVQAGGSLRLSCAASGLIFSRNAMGWYRQAPGQERELVAAISTGGSTYYADSVKGRFTISRDNAKNTGYLQMNSLKPEDTAVYYCAAAPGYIYEYWGQGTQVTVSS | low polyreactivity |
| QVQLVESGGGLVQAGGSLRLSCAASGRTIRHNAMGWYRQAPGKERELVAAISRSGGSTYYADSVKGRFTISRDYAKNTVYLQMNSLKPEDTAVYYCAAGYHIIYTPEYYYWGQGTQVTVSS | high polyreactivity |
| QVQLVESGGRLVQAGGSLRLSCAASGSTLFAYAMGSYRQAPGKETELVASISSGGNTNYADSVKGRFTISRDNSKNSVYLQMYSLKPEDTAVYYCNAGVPYHYPSYTYLYYYWGQGTQVTVSS | low polyreactivity |
| QVQLVESGGGLVQAGGSLRLSCAASGFTFISNAMGWYRQAPGKERELVAAISSSGGRTFYADSVKGRFTISRDNAKNTDDLQMNSLKPEDTAVYYCNADRSLLYSRKIEYDYWGQGTQVTVSS | low polyreactivity |
| QVQLVESGGGLVQAGGSLRLSCAASGRIFLVYAMGWYRQAPGKEREIVASISWSGGSTSYADTVKGLFTISRDNAKNNVSLQMNSLKPEDTAVYYCNAIRRPIFFRGRYYWGQGTQVTVSS | low polyreactivity |
| QVQLVESGGGLVQAGGSLRLSCAASGGTLFTNAMGWYRQAPGKERELVAAISWRGGRTYYADSVKGRFTISRDNAKNTVYLQMNSLKPEDTAVYYCAAASAAGYDYWGQGTQVTVSS | low polyreactivity |
| QVQLVESGGGLVQAGGSLRLSCAASGITFARYAMGWYRQAPGKARELVAAISRSGGSTYYADSVKGRFTSSRDNAKNTVYLQMNSLKPEDSAVYYCAAGGRVRRNKFDDWGQGTQVTVAS | high polyreactivity |
| QVQLVESGGGLVQAGGNLRLSCAASGFIFTRYAMGWYRQAPGKERELVAAISTSGDRTYYADSVKGRFTISRDNAKNTVYLQMNSLKPEDTAVYYCAVEASRAGAWYEYWGQGTQVTVSS | high polyreactivity |
| QVQLVESGGGIVQAGGSLRLICAASGSIFDVNALGWYSQAPGKERELVAAITWSGGNTYYADSVKGRFTISRDNAKNNFYLQMYSLKPEDTAVYYCNVYVSAGEEDEYWGQVTQVTVSS | low polyreactivity |
| QVQLVESGGGLVQAGGSLRLSCAASGSIFWYYAMGWYRQAPGKERELVASITSGGSTNYADSVKGRFTISRDNAKNTVYLQMISLKPEDTAVYYCNTDDDSSSTGYYSWGQGTQVTVSS | low polyreactivity |
| QVQLVESGGGLVQAGGSLRLSCAPSGSTFYPYAMGWYRQAPGKERELVAAISSGGSTYYADSVKGRFTISRDNAKNTVYLQMNSLKPEDTAVYYCAADFYYAYYWGQGTQVTVSS | low polyreactivity |
| QVPQQESGGGLVQAGGSLRLSCAASGTIFQLTVMGRYRQAPGKERELVSSIDYGGNTNYADIVKGRFSISRVNAKNTVYLQMNRLKPEDTSVYYFAASSDSWTTHPYWGQATQVTVSS | low polyreactivity |
| QVQLVESGGGLVQAGGSLRLSCAASGGIFPVNAMGWYRQAPGKERELVAAITWRGGRTYYADSVKGRFTISRDNSKNTVYLQMNSLKPEDTAVYYCAAYKGSSKYDYWGQGTQVTVSS | high polyreactivity |
| QVQLVESGGGLVQAGGSLRLSCAASGSIFHTYAMGWYIQAPGKERELVAAITVSGGDTYYADSVKGRFTISRDNEKNNVYLQMNSLKPEDTAVYYCAVDTTTSYTVAYDYWGQGTQVSVSS | low polyreactivity |
| QVQLVESGGGLVQAGGSLRLSCAASGFTFFYNAMGWYRQAPGKEREFVAAISGRGGRTYYADSVKGRFTISRDNAKNTVYLQMNSLKPEDTAVYYCNADYYPYGEYDYWGQGTQVTVSS | high polyreactivity |
| QVQLVESGGGLVQAGGSLRLSCAASVSIYPDYAMGWYRQAPGKERELVAAISRSGGSTYYADSVKGRFTISRDNAKNTVYLQMNSLKREDTAVYDCNARPGSRYYGYRLYYYWGQGTQVTVSS | high polyreactivity |
| QVQLVESGGGLVQAGGSLRLSCAASGNTIFPSTMGWYRQAPGKEREFVAAMTWSGVSTYYADSVKGRFTISRDNAKNTVYLQMNSLKPEDTAVYYCAARGPVYVSYPRQYGYWGQGTQVTVSS | high polyreactivity |
| QVQLVESGGGLVQAGGSLRLSCAASGSRYSRNAMGWYRQAPGKERELVAASSYSSGSTYYADSVKGRFTISLDNAKNTVYLQMNSLIPEDTAVYYCAADTTKLQGVEGDYWGQGTQVTVSS | low polyreactivity |

| Sequence | polyreactivity (PSR sort gate) |
| --- | --- |
| QVQLVESRGGLVQAGGSLRLSCAASGSIFLYYARGWYIQAPGKERELDAAISISGGRTYYADSVKGRFTISRDNSKNTVYIQMNSLKPEDTAVYYCATKGYTGYAYRYGYWGQGTQVTVSS | high polyreactivity |
| QVQLVESGGGLVQAGGSLRLSCAASGIIFDSYAMGWYRPAPGKERELVAAITSDSGRTYYADSVKGRFTISRDNAKNTVYLQMNSLKPEDTAVYYCAKRWDCPYDYWGQGTQVTVSS | low polyreactivity |
| QVQLVESGGGLVQAGGSLRLSCAASGFTFRHYAMGWYRQAPGKERELVAGITIRGTTYYADSVKGRFTISRDNAKNTVYLQMNSLKPEDTAVYYCAAAWRLGHLRFNSWGQGTQVTVSS | high polyreactivity |
| QVQLVESGGGLVQAGGSLRLSCAASGNIFFVYAMGWYRQAPGKERELVATITWRGDSTNYADSVKGRFTISRDNAKNTVYLQMNSLKPEDTAVYYCNAEDSYYTFEGDSWGQGTQVTVSS | low polyreactivity |
| QVQLVESGGGLVQAGGSLRLSCAASGSIFPYYAMGWYRQAPGKERELVATITYRGGSTNYADSVKGRFTISRDNAKNTVYLQMNSLKPEDTAVYYCAAYGYVLASPDPYSFVKLGYWGQGTQVTVSS | low polyreactivity |
| QVQLGESGGGLVQAGGILRLSCAASGSTFFYYAMGWYRQAPGKERELVATINYNGGSTSYADSVKGRFTFSRDNAKNTLYLQMISLIPEDTAVYYCAADLWVWYYKPYDYWGQGTQVTVSS | low polyreactivity |
| QVQLVESGGGIVQAGGSLRLSCAASGIIFHFNDMGWYRQAPGKERELVAAITSGGSTNYADSVKGRFTISRDNAKNTVDLQMNSLKPEDTAVYYCAARRGLRLFAYRHGYWGQGTQVTVSS | low polyreactivity |
| QDQLVESGGGLVQAGGSLRLSCAASGFIFWFYAMGWYRQAPGKERELVASISARGARTYYADSVKGRFTISRDNAKNTVYLQMNSLKPEDTAVYYCATTSPVWWRADDYWGQGTQVTVSS | high polyreactivity |
| QVQLVESGGGLVQAGGSLRLSSPASGRTFPGNPMGWYRQAPGKLRELVAAITRVRSTYYADSVKGRFTISRDNAKNTVYLQMNWLKPEDTVVYYCAADRLEGSYEDDATGFDDWGQGTQVTVSS | low polyreactivity |
| QVQLVESGGGLVQAGGSLRLSCAASGSTFYIYAMGWYIQAPGKERELVAAISTTDGTTYYADSVKGRFTISRDNAKNTVYLQMNSLKPEDTAVYYCAAEWFGSVQPAYDYWGQGTQVTVSS | high polyreactivity |
| QVQLVESGGGLVQAGGSLRLRCAASGSTFTGNTMGWYRQAPGKERELVAAITYRGGSTYYADSVKGRLTISRDNAKNTVYLQMNSLKPEDTAVYYCAAAGYYYSVEGAGPRYDYWGQGTQVTVSS | low polyreactivity |
| QVQLVESGGGLVQAGGSLRLSCAASGRIFGYYAMGWYRQAPGKERELVAVISWSGGSTYYADSVKGRFTISRDNAMNTVYLQMNSLKPEDSAVYYCAAERLYSIYDYWGQGTQVTVSS | high polyreactivity |
| QVQLVESGGGLVQAGGSHRLSCAASGRIFALNTMRWYRQAPGKEREFVAAITTSGGSTYADSVKGRFTISRDNAKNTVYLQMNSLKPEDTAVYYCNKEYYHKWAPTYDYWGQGTEVTVSS | low polyreactivity |
| QVQLVESGGGLVQAGGSLRLSCAASGRTFYYYGMGWYRQAPGKERELVAAINRGDSTKYADSVKGRFTISRDNAKNTVYLQMNSLKPEDTAVYYCNARLRASFARFIYEYWGQGTQVTVSS | low polyreactivity |
| QVQLVESGGGLVQAGGSLRLSCDASGNIFKSYVMGWYRQAPGKERELVAAITWSGGSTYYADSVKGRFTISRDNAKNTVYLQMNSLKPEDTAVYYCAAYPRRYRTTYDYWGQGTQVTVSS | high polyreactivity |
| QVQLVESGGGLVQAGGSLRLSCAASGRIFGPYTMGWYRQAPGKERELVAGITKSGSSTYYADSVKGRFTISRDNAKNTVYLQMNSLKPEDTAVYYCAADVYQVRGYYWGQGTQVTLSS | high polyreactivity |
| QVQLVESGGGLVQAGGSLRLSCAATGRTFRYYAMGWYRQAPGKERELVAAISSGGSTNYADSVKGRFTISRDNAKNTVYLQMNSLKPEDTAVYYCAALWSGNKFNYWGQGTQVTVSS | low polyreactivity |
| QVQLVESGGGLVQEGGSLRLSCAASGSIVTLYAMGWSRQAPGKERELVAAITWYGGSTYYADSVKGRFTISRDNAKNTVYLQMNSLKPEDTAVYYCAKDYLAGGPCEGHVEREYDYWGQGTQVTVSS | low polyreactivity |
| QVQLVESGGGLVQAGGSLRLSCAASGSTFLGYAMGWYRQAPGKERELVAAITYRGTRTYYADSVKGRFTISRDYAKNTVYLQMNSLKPEDTTVYYCAADRYIGTVEYDYWGQGTQVTVSS | high polyreactivity |
| QVQLVESGGGLVKAGGSLRLSCAASGIPFTFNAMGWYRQAPGKERELVAAITWSGGSTFYADSVKARFTISRDNAKITVYLQMNSLKQEDTAVYYCARETELYVRWLDYWGQGTQGTVSS | low polyreactivity |
| QVHIVESGGGLVQAGGSLRLSCAASGLIFYLYTRGWSRQATGKERELVAAISRSGTITYYADSVKGRFTISRDNAKNTVYLQMNSLKPEDTAVYYCAATYTYIIGTRYDYWGQGTQVTVSS | high polyreactivity |
